B1: HDV Ribozyme (parent)
chain: GGCCGGCAUGGUCCCAGCCUCCUCGCUGGCGCCGGCUGGGCAACAUUCCGAGGGGACCGUCCCCUCGGUAAUGGCGAAUGGGACCCA

Variants of: B1
Experiment: self-cleavage, relative activity (ratio to wild type); higher = more cleavage; co-transcriptional
C14A C66A showed a self-cleavage of 0.578. G74C C85G showed a self-cleavage of 0.0791. In the case of G17C A51G, the self-cleavage is reported as 0.317. In the case of G53U C85A, the self-cleavage is reported as 0.931. In the case of G11U U72C, the self-cleavage is reported as 0.231. For G28U G31U, the self-cleavage was 0.0923. For C3U G17C, the self-cleavage was 0.0297. In the case of C3U G17U, the self-cleavage is reported as 0.193. G25A G50A showed a self-cleavage of 0.406. Variant U23A A83C has a self-cleavage of 0.508. G11C C36U gave a self-cleavage of 0.136. With G38U A45U the self-cleavage was 0.158. U47A A71U showed a self-cleavage of 0.657. Work on G52C G68A yielded a self-cleavage of 0.564. Variant A8G C33A has a self-cleavage of 0.101. G25A A45C gave a self-cleavage of 0.227. G11U G38A showed a self-cleavage of 0.0135. G17C U65G gave a self-cleavage of 0.249. G11C G67U showed a self-cleavage of 0.323. With G28U A87U the self-cleavage was 0.116. In the case of C49A A56G, the self-cleavage is reported as 1.11. For C66G A83G, the self-cleavage was 0.72. In the case of C15A U46G, the self-cleavage is reported as 0.383. Variant C15G G74U has a self-cleavage of 0.0875. For U46G C62A, the self-cleavage was 0.575. For C49U, the self-cleavage was 0.96. Variant G1C C61A has a self-cleavage of 0.208. With G25A G34A the self-cleavage was 0.0863. G5A G28A gave a self-cleavage of 0.0378. With G28A G68A the self-cleavage was 0.124. Work on G35C U46G yielded a self-cleavage of 0.0831. A51G C61G showed a self-cleavage of 0.964. C66G A87G gave a self-cleavage of 1.06. For C33U C85G, the self-cleavage was 0.494. In the case of G25C A87G, the self-cleavage is reported as 0.174. G11U C84G gave a self-cleavage of 0.489. Variant U20G C44G has a self-cleavage of 0. For A42C A83C, the self-cleavage was 0.101. G2A C36G showed a self-cleavage of 0.0764. Work on U23G A45C yielded a self-cleavage of 0.151. G39U G81A showed a self-cleavage of 0.228. C22U G74C showed a self-cleavage of 0.157. C64U U79C showed a self-cleavage of 0.306. In the case of A51G G59C, the self-cleavage is reported as 0.895. G25U G73C gave a self-cleavage of 0.0415. For C32U U37G, the self-cleavage was 0.166. Work on U27A C61G yielded a self-cleavage of 0.504. Variant U9G C41U has a self-cleavage of 0.997. With C61U A78G the self-cleavage was 0.87. Work on G25A A51G yielded a self-cleavage of 0.269. For G59C G68U, the self-cleavage was 1.07. In the case of G34U C63G, the self-cleavage is reported as 0.0475. Work on A43G G68U yielded a self-cleavage of 0.436. For G11U U46C, the self-cleavage was 0.135. For C13A G31A, the self-cleavage was 0.0594. In the case of G34A A87C, the self-cleavage is reported as 0.126. Work on A8C A42U yielded a self-cleavage of 0.133. C75U G81C showed a self-cleavage of 0.16. For C32A A77U, the self-cleavage was 0.108. G10A G54C gave a self-cleavage of 0.582. With C21G C41U the self-cleavage was 0.0941. For G80U G81U, the self-cleavage was 0.191. Variant C14G U69A has a self-cleavage of 0.767. In the case of U65G G80C, the self-cleavage is reported as 0.185. For C19G C86A, the self-cleavage was 0. In the case of G2A C33A, the self-cleavage is reported as 0.0548. G2U G74U showed a self-cleavage of 0.056. Work on G40A G55C yielded a self-cleavage of 1.01. Work on U60G C62U yielded a self-cleavage of 1.05. In the case of U23C G28A, the self-cleavage is reported as 0.0396. In the case of G67C A77C, the self-cleavage is reported as 0.227. With C19G G28U the self-cleavage was 0.208. Variant U20C G39C has a self-cleavage of 0.185. G1A G59U showed a self-cleavage of 0.214. With C33A A70G the self-cleavage was 0.198. U60C C84U showed a self-cleavage of 0.918. G17U C30G showed a self-cleavage of 0.486. U9A C19U showed a self-cleavage of 0.113. Variant G17C A83C has a self-cleavage of 0.244. For G28C G76A, the self-cleavage was 0.106. Variant C13U G39U has a self-cleavage of 0.495. In the case of U27G A71G, the self-cleavage is reported as 0.875. In the case of C33U G68A, the self-cleavage is reported as 0.796. A56U A71U showed a self-cleavage of 0.864. In the case of C33U G73A, the self-cleavage is reported as 0.554. In the case of C33U C44G, the self-cleavage is reported as 0.453. Variant A43C U60G has a self-cleavage of 0.68. With U37G G38U the self-cleavage was 0.155. With C48G A56U the self-cleavage was 1.03. In the case of G10C C49G, the self-cleavage is reported as 0.453. G6A C33U showed a self-cleavage of 0.172. With G6U G29U the self-cleavage was 0.104. Work on G1U G40U yielded a self-cleavage of 0.225. With G2C C49A the self-cleavage was 0.0594. G55A G73C gave a self-cleavage of 0.658. C4A G25U gave a self-cleavage of 0.0252. In the case of C18U A71U, the self-cleavage is reported as 0.724. In the case of A56G C64G, the self-cleavage is reported as 0.791. C19G G38U gave a self-cleavage of 0.0852. For A45G A83C, the self-cleavage was 0.482. Variant C26A C62U has a self-cleavage of 1.12. C4A U79G showed a self-cleavage of 0. G5C C58U showed a self-cleavage of 0.293. In the case of G55A G74A, the self-cleavage is reported as 0.457. G11U C86U showed a self-cleavage of 0.415. For U20C U47A, the self-cleavage was 0.133. G34C G67A showed a self-cleavage of 0.211. G34C G67U showed a self-cleavage of 0.166. G6A A83C showed a self-cleavage of 0.291. In the case of C32U A42G, the self-cleavage is reported as 0.244. With U12C G39U the self-cleavage was 0.0723. Variant U72C G76C has a self-cleavage of 0.779. For C57A U60C, the self-cleavage was 1.01. In the case of C44G G54A, the self-cleavage is reported as 0.831. Work on G10U A71U yielded a self-cleavage of 0.639. In the case of A8G U9G, the self-cleavage is reported as 0.831. For A43G C85A, the self-cleavage was 0.44. C3U U37C gave a self-cleavage of 1.08. With A16G C62U the self-cleavage was 1.13. Work on C7U A70G yielded a self-cleavage of 0.831. For G28A A71G, the self-cleavage was 0.0831. In the case of C33U A83C, the self-cleavage is reported as 0.242. With G10U G55C the self-cleavage was 0.831. U60C G81A gave a self-cleavage of 0.604. In the case of G11U G31U, the self-cleavage is reported as 0.129. G28A C36U gave a self-cleavage of 0.0811. For C21U G81A, the self-cleavage was 0.0978. Variant G28C A51G has a self-cleavage of 0.0723. G2C G81C gave a self-cleavage of 0.0583. With G5A C49A the self-cleavage was 0.302. Work on A78U C84A yielded a self-cleavage of 0.185. Variant G39A A70G has a self-cleavage of 0.483. G39A G54U gave a self-cleavage of 0.517. Variant C26U G38U has a self-cleavage of 0.616. Variant G17C C24A has a self-cleavage of 0.0519. For G38U A43G, the self-cleavage was 0.208. Variant U20A C22G has a self-cleavage of 0. In the case of A45C G67A, the self-cleavage is reported as 0.719. With G74U G80U the self-cleavage was 0.0956. C41A G59A showed a self-cleavage of 0.844. In the case of U27G G67U, the self-cleavage is reported as 0.764. C26A A78C gave a self-cleavage of 0.284. Work on G52C A87G yielded a self-cleavage of 0.985. C7A G54C showed a self-cleavage of 0.8. Work on A51U U60G yielded a self-cleavage of 1.04. Work on C7U C41U yielded a self-cleavage of 0.802. For A8U A71U, the self-cleavage was 0.917. G1U C18A showed a self-cleavage of 0.304. Variant C58U A77C has a self-cleavage of 0.489. With G17C G35U the self-cleavage was 0.0773. With C48G C84U the self-cleavage was 0.848. In the case of G2U U69A, the self-cleavage is reported as 0.0222. With G2U G28A the self-cleavage was 0.0164. Variant C22U U79C has a self-cleavage of 0.198. With C22U U79G the self-cleavage was 0.178. Work on G38A A71U yielded a self-cleavage of 0.102. C57U G67C gave a self-cleavage of 1.11. With C24U U60A the self-cleavage was 0.627. Work on C33U G52A yielded a self-cleavage of 0.71. Variant A77G C84A has a self-cleavage of 0.464. With C13U G52U the self-cleavage was 0.394. Variant C3U A56U has a self-cleavage of 0.861. Variant G53U A83C has a self-cleavage of 0.6. G38U A77C gave a self-cleavage of 0.0554. G29A U47C gave a self-cleavage of 0.16. For G53A C62G, the self-cleavage was 0.511. For C4G C62U, the self-cleavage was 0.388.

Reference: the RNAGym collection of RNA variant scans (doi:10.7554/elife.80360)
